Test [1] addresses Bovine α-chymotrypsin (bovine). In words: complex dissociation followed by regain of protease activity; 5 µM serpin-chymotrypsin complex diluted 200–2000-fold (0–25 nM) into assay buffer with substrate, 25 °C; apparent rate constant k_(diss,app).
For test [2], the target named is Bovine α-chymotrypsin (bovine). In words: enzyme inhibition kinetics (progress curves); inhibition of chymotrypsin by several serpin concentrations followed over time at 25 °C; slope of kobs against inhibitor concentration, corrected for non-productive turnover (k'ass); protease assay buffer pH 8.0 with chromogenic substrate.

The results in this text go back to paper PMC5794792.

In the case of “α1-antitrypsin (from UniProt P01009 25-418) (natural protein)”, the koff (usually the first-order rate constant of dissociation) in test [1] turned out to be 7.5e-06 s⁻¹. The kon – broadly, a measure of how fast the partners come together – in test [2] worked out at 690000 M⁻¹ s⁻¹.
